# T1: hIL-1 IR (Homo sapiens, UniProt Q14626)
# T1 sequence (Q14626 23-422): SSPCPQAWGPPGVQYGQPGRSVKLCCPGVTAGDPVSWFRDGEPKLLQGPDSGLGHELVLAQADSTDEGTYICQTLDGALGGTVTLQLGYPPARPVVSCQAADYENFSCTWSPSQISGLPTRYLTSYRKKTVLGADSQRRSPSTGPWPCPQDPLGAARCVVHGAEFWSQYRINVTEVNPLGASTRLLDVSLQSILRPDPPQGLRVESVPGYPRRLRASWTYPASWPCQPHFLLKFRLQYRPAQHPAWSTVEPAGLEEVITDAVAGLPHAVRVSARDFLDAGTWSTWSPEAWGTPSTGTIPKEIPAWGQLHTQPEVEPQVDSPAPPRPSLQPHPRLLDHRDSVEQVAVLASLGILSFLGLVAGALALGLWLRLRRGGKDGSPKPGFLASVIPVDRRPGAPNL
# Target: T1, hIL-1 IR
# Assay: Alternate biolayer interferometry assay (AHC biosensors) ranking mAbs 16-32 against mAb5
# Assay type: binding
# Details: compared to mAb5
# Description: A further series of antibodies were designed in which the residue at Kabat position 31 of the heavy chain was varied (mAbs 16-32). In this case an alternate biolayer interferometry assay was used to initially rank the antibodies compared to mAb5, the closest relative in sequence to mAbs 16-32. MAbs were loaded onto anti-human constant domain (AHC) biosensors (FortdBio) in 10× kinetics buffer consisting of PBS, 0.1% BSA, 0.02% Tween 20 for 120 s to achieve a spectral shift value of 0.8 to 1.2 nm. Association was carried out in the presence of 2-fold dilution series of hIL-1 IR and was allowed to proceed for 120 s. Dilution series started 10 nM. The dissociation in 10× kinetics buffer for 1200 s. Binding kinetic measurements were taken on an Octet RED96e instrument.
row,Molecule,qualitative assessment
1,"mAb20: anti-IL-11Rα antibody; VH SEQ ID NO: 231, VL SEQ ID NO: 232; heavy chain Kabat position 31 variant of mAb5 (antibody, V domains shown, mAb20 VH Chain; mAb20 VL Chain, anti-IL-11Rα antibody; heavy chain Kabat position 31 variant of mAb5) VH: EVQLLESGGGLVQPGGSLRLSCAASGFTFSGYSMTWVRQAPGKGLEWVSSIVPYGDLTQYADSVKGRFTISRDNSKNTLYLQMNSLRAEDTAVYYCAKGPGWGSFDLWGRGTLVTVSS VL: DIQMTQSPSSLSASVGDRVTITCQASQDINNYLNWYQQKPGKAPKLLIYDASNLQTGVPSRFSGSGSGTDFTFTISSLQPEDIATYYCQQHESQSPTFGPGTKVDIK",similar
2,"mAb22: anti-IL-11Rα antibody; VH SEQ ID NO: 235, VL SEQ ID NO: 236; heavy chain Kabat position 31 variant of mAb5 (antibody, V domains shown, mAb22 VH Chain; mAb22 VL Chain, anti-IL-11Rα antibody; heavy chain Kabat position 31 variant of mAb5) VH: EVQLLESGGGLVQPGGSLRLSCAASGFTFSIYSMTWVRQAPGKGLEWVSSIVPYGDLTQYADSVKGRFTISRDNSKNTLYLQMNSLRAEDTAVYYCAKGPGWGSFDLWGRGTLVTVSS VL: DIQMTQSPSSLSASVGDRVTITCQASQDINNYLNWYQQKPGKAPKLLIYDASNLQTGVPSRFSGSGSGTDFTFTISSLQPEDIATYYCQQHESQSPTFGPGTKVDIK",similar
3,"mAb25: anti-IL-11Rα antibody; VH SEQ ID NO: 241, VL SEQ ID NO: 242; heavy chain Kabat position 31 variant of mAb5 (antibody, V domains shown, mAb25 VH Chain; mAb25 VL Chain, anti-IL-11Rα antibody; heavy chain Kabat position 31 variant of mAb5) VH: EVQLLESGGGLVQPGGSLRLSCAASGFTFSMYSMTWVRQAPGKGLEWVSSIVPYGDLTQYADSVKGRFTISRDNSKNTLYLQMNSLRAEDTAVYYCAKGPGWGSFDLWGRGTLVTVSS VL: DIQMTQSPSSLSASVGDRVTITCQASQDINNYLNWYQQKPGKAPKLLIYDASNLQTGVPSRFSGSGSGTDFTFTISSLQPEDIATYYCQQHESQSPTFGPGTKVDIK",similar
4,"mAb24: anti-IL-11Rα antibody; VH SEQ ID NO: 239, VL SEQ ID NO: 240; heavy chain Kabat position 31 variant of mAb5 (antibody, V domains shown, mAb24 VH Chain; mAb24 VL Chain, anti-IL-11Rα antibody; heavy chain Kabat position 31 variant of mAb5) VH: EVQLLESGGGLVQPGGSLRLSCAASGFTFSLYSMTWVRQAPGKGLEWVSSIVPYGDLTQYADSVKGRFTISRDNSKNTLYLQMNSLRAEDTAVYYCAKGPGWGSFDLWGRGTLVTVSS VL: DIQMTQSPSSLSASVGDRVTITCQASQDINNYLNWYQQKPGKAPKLLIYDASNLQTGVPSRFSGSGSGTDFTFTISSLQPEDIATYYCQQHESQSPTFGPGTKVDIK",similar

# Other lines, results leading:
row,qualitative assessment,Molecule
1,decreased,"mAb27: anti-IL-11Rα antibody; VH SEQ ID NO: 245, VL SEQ ID NO: 246; heavy chain Kabat position 31 variant of mAb5 (antibody, V domains shown, mAb27 VH Chain; mAb27 VL Chain, anti-IL-11Rα antibody; heavy chain Kabat position 31 variant of mAb5) VH: EVQLLESGGGLVQPGGSLRLSCAASGFTFSPYSMTWVRQAPGKGLEWVSSIVPYGDLTQYADSVKGRFTISRDNSKNTLYLQMNSLRAEDTAVYYCAKGPGWGSFDLWGRGTLVTVSS VL: DIQMTQSPSSLSASVGDRVTITCQASQDINNYLNWYQQKPGKAPKLLIYDASNLQTGVPSRFSGSGSGTDFTFTISSLQPEDIATYYCQQHESQSPTFGPGTKVDIK"
2,decreased,"mAb26: anti-IL-11Rα antibody; VH SEQ ID NO: 243, VL SEQ ID NO: 244; heavy chain Kabat position 31 variant of mAb5 (antibody, V domains shown, mAb23 VH Chain; mAb26 VL Chaim, anti-IL-11Rα antibody; heavy chain Kabat position 31 variant of mAb5) VH: EVQLLESGGGLVQPGGSLRLSCAASGFTFSNYSMTWVRQAPGKGLEWVSSIVPYGDLTQYADSVKGRFTISRDNSKNTLYLQMNSLRAEDTAVYYCAKGPGWGSFDLWGRGTLVTVSS VL: DIQMTQSPSSLSASVGDRVTITCQASQDINNYLNWYQQKPGKAPKLLIYDASNLQTGVPSRFSGSGSGTDFTFTISSLQPEDIATYYCQQHESQSPTFGPGTKVDIK"

# — US20240425606A1, “ANTI-IL-11RA ANTIBODIES” (Lassen Therapeutics 1, Inc., priority 2021, published 2024)
